Measured values: patent publication EP1451343B1

Molecular target: mouse BRCA1 protein (mouse) (UniProt P48754)
Assay: cell-based or functional assay

UniProt P48754, sequence (P48754 whole entry): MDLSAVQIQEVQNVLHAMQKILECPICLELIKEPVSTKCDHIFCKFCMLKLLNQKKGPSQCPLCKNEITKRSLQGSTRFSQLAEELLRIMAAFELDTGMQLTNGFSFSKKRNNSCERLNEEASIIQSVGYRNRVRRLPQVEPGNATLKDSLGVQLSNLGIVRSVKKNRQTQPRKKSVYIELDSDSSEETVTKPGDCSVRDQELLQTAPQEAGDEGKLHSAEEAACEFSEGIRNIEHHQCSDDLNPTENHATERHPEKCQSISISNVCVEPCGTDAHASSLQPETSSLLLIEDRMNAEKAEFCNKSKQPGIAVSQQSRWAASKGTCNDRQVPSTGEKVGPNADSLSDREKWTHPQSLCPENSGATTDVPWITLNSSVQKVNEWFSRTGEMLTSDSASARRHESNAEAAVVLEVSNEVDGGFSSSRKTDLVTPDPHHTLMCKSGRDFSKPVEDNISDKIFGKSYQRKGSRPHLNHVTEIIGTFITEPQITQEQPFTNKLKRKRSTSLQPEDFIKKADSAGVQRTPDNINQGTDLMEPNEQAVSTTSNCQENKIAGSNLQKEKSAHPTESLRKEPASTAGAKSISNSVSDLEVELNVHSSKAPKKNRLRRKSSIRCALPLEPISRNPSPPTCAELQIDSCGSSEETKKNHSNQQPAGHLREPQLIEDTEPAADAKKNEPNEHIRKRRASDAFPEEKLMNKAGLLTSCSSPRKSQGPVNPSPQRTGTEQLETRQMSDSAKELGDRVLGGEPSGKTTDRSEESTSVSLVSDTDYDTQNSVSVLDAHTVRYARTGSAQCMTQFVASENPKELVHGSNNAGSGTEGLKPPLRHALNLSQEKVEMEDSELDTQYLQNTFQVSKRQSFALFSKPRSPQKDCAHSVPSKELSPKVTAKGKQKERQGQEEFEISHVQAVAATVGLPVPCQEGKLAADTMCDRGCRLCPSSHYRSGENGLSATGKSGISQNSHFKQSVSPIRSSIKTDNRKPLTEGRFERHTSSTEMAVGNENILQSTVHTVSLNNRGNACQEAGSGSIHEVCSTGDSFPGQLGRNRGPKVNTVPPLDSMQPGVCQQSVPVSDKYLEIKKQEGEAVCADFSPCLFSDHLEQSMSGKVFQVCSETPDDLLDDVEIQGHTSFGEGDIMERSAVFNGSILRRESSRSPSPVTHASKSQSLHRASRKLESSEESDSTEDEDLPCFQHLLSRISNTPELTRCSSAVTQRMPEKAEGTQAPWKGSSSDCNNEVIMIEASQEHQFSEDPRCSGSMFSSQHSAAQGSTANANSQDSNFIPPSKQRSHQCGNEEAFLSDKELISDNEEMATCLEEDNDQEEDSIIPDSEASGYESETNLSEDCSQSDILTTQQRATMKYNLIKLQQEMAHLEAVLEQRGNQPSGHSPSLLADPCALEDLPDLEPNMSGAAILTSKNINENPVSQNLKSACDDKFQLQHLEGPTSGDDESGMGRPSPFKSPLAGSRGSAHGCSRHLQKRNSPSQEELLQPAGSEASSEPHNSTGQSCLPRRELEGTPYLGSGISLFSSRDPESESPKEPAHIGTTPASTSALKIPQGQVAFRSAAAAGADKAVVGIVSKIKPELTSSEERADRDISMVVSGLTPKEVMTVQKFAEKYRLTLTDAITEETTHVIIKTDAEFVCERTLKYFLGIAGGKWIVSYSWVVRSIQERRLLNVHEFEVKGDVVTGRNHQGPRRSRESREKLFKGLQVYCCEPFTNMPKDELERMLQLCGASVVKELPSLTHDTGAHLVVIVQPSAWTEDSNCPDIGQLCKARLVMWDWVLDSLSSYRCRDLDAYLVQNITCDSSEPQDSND

Substance: mouse FANCD2 protein (from UniProt Q80V62 1-1450)
- anti-FANCD2 foci co-localized with regions of intense anti-BRCA1 staining (20 pachytene nuclei of mouse spermatocytes): 65%
